{
  "source": "paper PMC2783380",
  "binders": {"B1": {"name": "APOBEC3G, Q9HC16 1-384 (enzyme)", "chain": "MKPHFRNTVERMYRDTFSYNFYNRPILSRRNTVWLCYEVKTKGPSRPPLDAKIFRGQVYSELKYHPEMRFFHWFSKWRKLHRDQEYEVTWYISWSPCTKCTRDMATFLAEDPKVTLTIFVARLYYFWDPDYQEALRSLCQKRDGPRATMKIMNYDEFQHCWSKFVYSQRELFEPWNNLPKYYILLHIMLGEILRHSMDPPTFTFNFNNEPWVRGRHETYLCYEVERMHNDTWVLLNQRRGFLCNQAPHKHGFLEGRHAELCFLDVIPFWKLDLDQDYRVTCFTSWSPCFSCAQEMAKFISKNKHVSLCIFTARIYDDQGRCQEGLRTLAEAGAKISIMTYSEFKHCWDTFVDHQGCPFQPWDGLDEHSQDLSGRLRAILQNQEN"}},
  "biological_target": "APOBEC3G (human), Q9HC16",
  "assay": "AUC",
  "details": "remark: other sources report otherwise",
  "data": [
    {"binder": "B1", "values": [
      {"measurement": "stoichiometry N", "value": 4}
    ]}
  ]
}
